FireProtDB (doi:10.1021/ja046667t)
Several values for one entry are separate records, joined by “and”; a condition that tells them apart may be missing. Equal entries are not always repeated.

Settings: pH 7, Thermal, CD, Phosphate 50 mM, whole UniProt chain shown

Row | Protein | unfolding enthalpy (van 't Hoff) (Hydrogenobacter thermophilus (strain DSM 6534 / IAM 12695 / TK-6), 25 °C) | unfolding enthalpy (van 't Hoff) (Hydrogenobacter thermophilus (strain DSM 6534 / IAM 12695 / TK-6)) | unfolding free energy (Pseudomonas aeruginosa (strain ATCC 15692 / DSM 22644 / CIP 104116 / JCM 14847 / LMG 12228 / 1C / PRS 101 / PAO1), 25 °C) | unfolding enthalpy (van 't Hoff) (Pseudomonas aeruginosa (strain ATCC 15692 / DSM 22644 / CIP 104116 / JCM 14847 / LMG 12228 / 1C / PRS 101 / PAO1))
1 | Cytochrome c-552 wild type, P15452 (protein) MKKFLLVAVVGLAGITFANEQLAKQKGCMACHDLKAKKVGPAYADVAKKYAGRKDAVDYLAGKIKKGGSGVWGSVPMPPQNVTDAEAKQLAQWILSIK | 236 kJ/mol and 269 kJ/mol | 456 kJ/mol and 584 kJ/mol | – | –
2 | Cytochrome c-551 wild type, P00099 (protein) MKPYALLSLLATGTLLAQGAWAEDPEVLFKNKGCVACHAIDTKMVGPAYKDVAAKFAGQAGAEAELAQRIKNGSQGVWGPIPMPPNAVSDDEAQTLAKWVLSQK | – | – | 32.2 kJ/mol and 81.4 kJ/mol | 295 kJ/mol and 664 kJ/mol
